Source: doi:10.1101/305292

Target: GFP-tagged epidermal growth factor receptor (EGFR-GFP) (human) (UniProt P00533)
Test: dual-colour single-molecule TIRF colocalisation with step-wise photobleaching

percent of EGFR foci colocalised with EGF, across 60 min: 40%
percent of all EGFR molecules in foci colocalised with EGF: 64%
Substance: tetramethylrhodamine-labelled epidermal growth factor (EGF-TMR) (ligand)
